Patent US12466852B2, “Method for extraction and purification of hirudin mutant and use thereof” (SUNGEN BIOSCIENCE CO., LTD., priority 2019, dated 2025)
Entries after “also recorded” stand apart in the source; their conditions may differ.

Assays:
thrombin = thrombin (Homo sapiens, UniProt P00734); assay: anticoagulant activity by biochemical method determination (Chinese Pharmacopoeia 2005 edition, page 84)
Protocol: According to the analysis of anticoagulant activity by biochemical method determination, the anticoagulant activity of the prepared hirudin mutant HV2-Lys47 was calculated to be 17000 ATU/mg. For the specific determination of anticoagulant activity, reference may be made to the left column of page 84 of the Chinese Pharmacopoeia (2005 edition). Moreover, the purity of the hirudin mutant HV2-Lys47 calculated according to the proportion of color bands in gel electrophoresis had reached to 95%.

[1] = effects of drying process on the activity of hirudin mutant HV2-Lys47 in anticoagulant blood collection tubes; format: physicochemical; conditions: for Activity after drying / Activity loss: content 306ATU/tube
Protocol: Effects of drying process on the activity of hirudin mutant HV2-Lys47 in anticoagulant blood collection tubes were studied.
The hirudin prepared in Example 9 was dissolved in sterile pure water with a dissolution concentration of 3.4 g/100 ml pure water. 2 ml blood collection tubes were used, and each of them was sprayed with the solution of the prepared hirudin mutant HV2-Lys47 by needle spray, and then dried.
The common drying process in the art is high temperature drying: drying three times at 45° C., 50° C. and 70° C., three times for each temperature, and 60 seconds each time.
The drying method in the present application is: drying the sprayed blood collection tubes in a vacuum lyophilizer at a temperature of −50° C. and a vacuum degree of […].
The effects of high temperature drying and vacuum lyophilization methods on the activity of hirudin mutant HV2-Lys47 were as shown in Table 1 below.

blood coagulation = assay: effects of the amount of hirudin mutant HV2-Lys47 in the blood collection tube on blood coagulation; conditions: for Coagulation: blood collection volume 2
Protocol: Effects of the amount of the hirudin mutant HV2-Lys47, which was prepared and vacuum-lyophilized in Example 9, on blood coagulation were as shown in Table 2 below:
It can be seen from the above table that anticoagulant effect can be achieved when the amount of the hirudin mutant HV2-Lys47 added in the blood collection tube is 0.005 mg or more.

[2] = drying for 40 min at −50° C. and with a vacuum degree of −4 Mpa
[3] = drying three times at 45° C., 60 seconds each time
[4] = drying three times at 50° C., 60 seconds each time
[5] = drying three times at 70° C., 60 seconds each time

B1: hirudin mutant HV2-Lys47: hirudin mutant of SEQ ID NO.: 1; asparagine at position 47 of natural hirudin substituted by lysine; produced by Escherichia coli fermentation (protein)
chain: ITYTDCTESGQNLCLCEGSNVCGKGNKCILGSNGKGNQCVTGEGTPKPESHNNGDFEEIPEEYLQ
With B1 the anticoagulant activity (thrombin; prepared in Example 1 (tube centrifuge, ethanol precipitation)) was 17000 ATU/mg, the anticoagulant activity (thrombin; prepared in Example 2 (disk centrifuge, 8% salt)) was 15800 ATU/mg and the anticoagulant activity (thrombin; prepared in Example 3 (ceramic membrane)) was 16800 ATU/mg. The anticoagulant activity (thrombin; prepared in Example 4 (hollow fiber membrane)) was 16000 ATU/mg, the anticoagulant activity (thrombin; prepared in Example 5 (methanol precipitation)) was 15800 ATU/mg and the anticoagulant activity (thrombin; prepared in Example 6 (acetone precipitation)) was 17000 ATU/mg. The anticoagulant activity (thrombin; prepared in Example 7 (ammonium sulfate precipitation)) was 15000 ATU/mg, the anticoagulant activity (thrombin; prepared in Example 8 (ceramic membrane, nanofiltration, sodium chloride precipitation)) was 14500 ATU/mg and the anticoagulant activity (thrombin; prepared in Example 9 (isopropanol precipitation)) was 18000 ATU/mg. The Activity after drying [1, 2] was 304 ATU/tube, the Activity loss [1, 2] was 0.65% and the Activity after drying [1, 3] was 276 ATU/tube. The Activity loss [1, 3] was 9.8%, the Activity after drying [1, 4] was 245 ATU/tube and the Activity loss [1, 4] was 19.9%. The Activity after drying [1, 5] was 160 ATU/tube, the Activity loss [1, 5] was 47.7% and the “loss of hirudin activity” value ([1]; high-temperature drying process generally used in production of a blood collection tube) was “about 10%”. For the same molecule, the “hirudin activity loss (in words)” value ([1]; vacuum lyophilization) was “no hirudin activity loss; also recorded: not lost”, the “amount added in the blood collection tube at which anticoagulant effect can be achieved” value (blood coagulation; 2 ml blood collection) was at least 0.005 mg and the Coagulation (blood coagulation; amount 0.001) was “Quick coagulation”. For the same molecule, the Coagulation (blood coagulation; amount 0.005) was “No coagulation”, the Coagulation (blood coagulation; amount 0.008) was “No coagulation” and the Coagulation (blood coagulation; amount 0.02) was “No coagulation”. For the same molecule, the Coagulation (blood coagulation; amount 0.08) was “No coagulation”, the Coagulation (blood coagulation; amount 0.16) was “No coagulation” and the Coagulation (blood coagulation; amount 0.5) was “No coagulation”. The Coagulation (blood coagulation; amount 1) was “No coagulation”, the Coagulation (blood coagulation; amount 5) was “No coagulation” and the Coagulation (blood coagulation; amount 10) was “No coagulation”. For the same molecule, the Coagulation (blood coagulation; amount 15) was “No coagulation” and the Coagulation (blood coagulation; amount 20) was “No coagulation”.
